The source of these data is patent US9163227B2, “Anti-diabetic compounds” (PFIZER INC., priority 2011, dated 2015).

Numbering of substitutions follows the chain as printed. Names may count otherwise. Like-named read-outs stand apart in the source and are kept apart here. Marks after values point to notes of the source that are not given here.

The target of series [1] is Glut1 mRNA expression in differentiated 3T3-L1 adipocytes (Mus musculus, UniProt P16092+Q99N32). Nature of the series: Glut1 Taqman assay. It is filed as cell-based. The procedure: Differentiated 3T3-L1 adipocytes were used to measure the Glut1 mRNA expression by qPCR method. Overnight serum starved day 10-14 differentiated 3T3-L1 adipocytes were treated with compounds for 6 hrs. Total RNA was extracted from these cells, and Glut1 and GAPDH mRNA expression was measured using a Quantitect Probe RT-PCR kit and running a quantitative real time PCR reaction in a Taqman machine (Applied Biosystems®). The bioactivity of the compounds was determined by a fold change in Glut1 mRNA levels normalized by the GAPDH mRNA levels from each sample. EC═values as measurements of the potency of the compounds were obtained from the dose response curves in the assay.
3T3-L1 adipocytes were seeded at day 8 in 24-well tissue culture plates (Falcon®, Cat#353047), and incubated in DMEM complete medium (10% FBS, 2 mM L-glutamine, 1% P/S) at 37° C., 5% CO2. […] The medium was aspirated, and then RNA extracted from the cells using the RNeasy mini Kit according to the manufacturer's instructions. RNA was measured at A260 nm using the Spectramax® Plus spectrophotometer.
In Glut1 Taqman assay, differentiated 3T3-L1 adipocytes were used to measure the Glut1 mRNA expression by real-time quantitative PCR (qPCR) method described below. Overnight serum starved day 10-14 differentiated 3T3-L1 adipocytes were treated with compounds for 6 hrs. Total RNA was extracted from these cells, and Glut1 and GAPDH mRNA expression was measured using a Quantitect Probe RT-PCR kit and running a real time quantitative PCR reaction in a Taqman machine. The bioactivity of the compounds was determined by a fold change in Glut1 mRNA levels normalized by the GAPDH mRNA levels from each sample. In cAMP assay, Chinese hamster ovary (CHO) cells over-expressing human GLP-1R(CHO-hGLP-1R) were seeded in 96-well plates in serum-free medium with 300 uM IBMX. Cells were incubated with compounds at RT for 1 hr. The cAMP levels were measured using a CisBio cAMP Kit according to manufacturer's instructions. The bioactivity of the compounds was determined by the EC50 values obtained from the assay (see Table 42).
On the technique in general: In qPCR the cycle at which signal appears reflects the starting amount.

The target in series [2] is differentiated 3T3-L1 adipocytes (Mus musculus, UniProt P16092+Q99N32). The series is described as follows: Glucose uptake assay. The series is classed as cell-based. The conditions noted are these: unconjugated protein (per Examples 18-21); n in parentheses. The procedure:
Differentiated 3T3-L1 adipocytes were treated with compounds in the absence of serum for 24 hrs. Cells were then incubated with ^14C-2-deoxyglucose for 1 hr and glucose uptake into the cells was quantitated in Wallac 1450 MicroBeta (Trilux) instrument. Glucose uptake was expressed in counts per min (CPM). EC50 values as measurements of the potency of the compounds were obtained from the dose response curves in the assay.

The nature of series [3]: Mouse pharmacokinetics of FGF21 antibody conjugates. The series is classed as in vivo, Swiss-Webster mice. The conditions noted are these: mouse PK; antibody conjugate at the named site (protein for FGF21ΔH). As for the experimental part:
The PK of FGF21 antibody conjugates were examined in mice after IV or SC administration. […] Antibody conjugates concentrations in serum were determined using an ELISA which captured the FGF21 portion of the antibody conjugates through a monoclonal anti-hFGF21 antibody bound to a 96-well plate. FGF21 antibody conjugates bound to the plate were detected through an anti-hFc monoclonal antibody, and concentrations were determined using a standard curve of the PK dosing solution diluted into serum-containing assay buffer. SC bioavailability was calculated as the ratio of the area-under the curve (AUC) of the SC serum concentration profile divided by the AUC of the IV serum concentration profile.

Another series has as its system ob/ob mice. Nature of the series: Oral glucose tolerance test in ob/ob mice (FGF21 conjugates). The series is classed as in vivo. Conditions: for mean glucose AUC % during OGTT: FIG. 6B; for Mean Glucose AUC (% of vehicle control) during OGTT: FIGS. 4A/4B. The procedure:
(§1) The efficacy of FGF21 antibodies conjugates was evaluated in two murine obese insulin resistant models—ob/ob mice and high-fat diet-induced obese mice. For both models, male mice (6-8 weeks of age for ob/ob, 12-14 weeks of age for DIO with high-fat diet initiated at 6 weeks of age) were housed 2-4/cage and FGF21 antibody conjugates were administered by SC injection. Body weight was measured daily in the morning. Glucose tolerance was assessed by oral glucose tolerance test. Briefly, mice were fasted for 4-5 hrs in the morning of the day of testing. A basal blood sample was obtained and blood glucose levels were determined using a portable glucometer.

A short description of series [4]: Body weight and liver weight in ob/ob mice. It is filed as in vivo. The conditions noted are these: for mean liver weight: FIG. 5B. As for the experimental part: as §1
Series [5] has as its system SCD1, MOGAT2, FoxA2 mRNA in liver. The series is described as follows: Hepatic gene expression (qPCR) in ob/ob mice. It is filed as in vivo. Conditions: day 6, 1 mg/kg QD.
The subject of series [6] is high-fat diet-induced obese mice. The series is described as follows: Oral glucose tolerance test in DIO mice (FGF21 conjugates). It is filed as in vivo. Conditions: day 10, 1 mg/kg QD. The procedure: as §1
For series [7] the test system is unchanged. The series is described as follows: Serum lipids in DIO mice. It is filed as in vivo. Conditions: day 10, 1 mg/kg QD.
Series [8] is described as follows: Stability assay of FGF21ΔH-D79C. It is filed as physicochemical. The procedure: FGF21ΔH-D790 mutant protein was produced in E. coli and purified as described above. FGF21ΔH-D790 was expressed from 1 L of culture. A 150 mg inclusion body was obtained and 85 mg purified protein was obtained, representing a 60% yield. To test the stability of FGF21ΔH-D790 as well as FGF21ΔH (SEQ ID NO:2), freshly thawed samples were kept at 4° C. over seven days, and examined for their integrity by RP-HPLC, SEC_HPLC, Ellman assay and SDS-PAGE on day 0, 3 and 7. […] PBS (pH7.4) and 20 mM Tris-HCl 50 mM NaCl (pH7.5) made no significant difference of stability of FGF21ΔH-D79C.
It is possible that the solubility of FGF21ΔH-D79C may be reduced at pH6.0. The stability of FGF21ΔH-D79C was examined upon multiple freeze/thaw cycles. The proteins were repeated to freeze (−80 C) and thaw (4° C.) 9 times.

The next series deals with DIO mice. The series is described as follows: Sub-chronic and single dose efficacy of ABC-1 in DIO mice (body weight, food intake, OGTT, cholesterol, liver triglycerides). It is filed as in vivo. Conditions: Table 54: DIO mice, single SC 0.6 mg/kg. As for the experimental part:
Sub Chronic Dose Efficacy. […] All compounds were dosed SC once weekly, body weight and food intake was measured twice weekly, and an OGTT was conducted on day 17, 3 days after the 3rd weekly dose. On day 20, liver and serum samples were collected for lipid analysis.
All compounds were administered SC on day 0, body weight was measured twice weekly, and OGTT was conducted on day 7, 13, and 21. […] The sustained efficacy of the ABC-1 in vivo supports once weekly dosing of the compound.
Sub Chronic Dose Efficacy. […] All compounds were administered SC once weekly. Body weight was measured twice weekly, and an OGTT was conducted 3 days after the 3rd weekly dose.

Glut1 mRNA expression in differentiated 3T3-L1 adipocytes, sequence (P16092 22-822): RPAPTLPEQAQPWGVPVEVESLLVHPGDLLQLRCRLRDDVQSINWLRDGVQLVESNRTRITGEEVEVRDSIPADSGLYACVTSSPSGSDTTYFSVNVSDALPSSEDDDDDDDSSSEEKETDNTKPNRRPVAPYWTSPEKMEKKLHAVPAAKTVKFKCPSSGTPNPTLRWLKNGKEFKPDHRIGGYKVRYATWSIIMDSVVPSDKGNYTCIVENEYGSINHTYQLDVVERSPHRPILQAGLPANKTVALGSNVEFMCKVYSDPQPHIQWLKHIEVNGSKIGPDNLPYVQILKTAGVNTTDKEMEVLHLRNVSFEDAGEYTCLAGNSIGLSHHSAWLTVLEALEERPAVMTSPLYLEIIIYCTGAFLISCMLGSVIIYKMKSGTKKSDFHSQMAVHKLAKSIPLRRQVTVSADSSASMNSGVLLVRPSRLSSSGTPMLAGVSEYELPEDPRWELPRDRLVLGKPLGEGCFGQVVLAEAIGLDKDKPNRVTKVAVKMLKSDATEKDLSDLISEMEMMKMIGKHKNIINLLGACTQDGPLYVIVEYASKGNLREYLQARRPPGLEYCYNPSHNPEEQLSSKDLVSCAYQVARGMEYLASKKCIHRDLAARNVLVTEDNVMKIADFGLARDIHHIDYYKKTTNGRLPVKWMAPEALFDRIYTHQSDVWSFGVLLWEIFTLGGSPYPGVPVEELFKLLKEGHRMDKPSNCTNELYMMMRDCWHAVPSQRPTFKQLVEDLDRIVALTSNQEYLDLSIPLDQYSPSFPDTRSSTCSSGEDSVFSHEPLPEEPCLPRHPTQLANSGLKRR
Glut1 mRNA expression in differentiated 3T3-L1 adipocytes, sequence (Q99N32 whole entry): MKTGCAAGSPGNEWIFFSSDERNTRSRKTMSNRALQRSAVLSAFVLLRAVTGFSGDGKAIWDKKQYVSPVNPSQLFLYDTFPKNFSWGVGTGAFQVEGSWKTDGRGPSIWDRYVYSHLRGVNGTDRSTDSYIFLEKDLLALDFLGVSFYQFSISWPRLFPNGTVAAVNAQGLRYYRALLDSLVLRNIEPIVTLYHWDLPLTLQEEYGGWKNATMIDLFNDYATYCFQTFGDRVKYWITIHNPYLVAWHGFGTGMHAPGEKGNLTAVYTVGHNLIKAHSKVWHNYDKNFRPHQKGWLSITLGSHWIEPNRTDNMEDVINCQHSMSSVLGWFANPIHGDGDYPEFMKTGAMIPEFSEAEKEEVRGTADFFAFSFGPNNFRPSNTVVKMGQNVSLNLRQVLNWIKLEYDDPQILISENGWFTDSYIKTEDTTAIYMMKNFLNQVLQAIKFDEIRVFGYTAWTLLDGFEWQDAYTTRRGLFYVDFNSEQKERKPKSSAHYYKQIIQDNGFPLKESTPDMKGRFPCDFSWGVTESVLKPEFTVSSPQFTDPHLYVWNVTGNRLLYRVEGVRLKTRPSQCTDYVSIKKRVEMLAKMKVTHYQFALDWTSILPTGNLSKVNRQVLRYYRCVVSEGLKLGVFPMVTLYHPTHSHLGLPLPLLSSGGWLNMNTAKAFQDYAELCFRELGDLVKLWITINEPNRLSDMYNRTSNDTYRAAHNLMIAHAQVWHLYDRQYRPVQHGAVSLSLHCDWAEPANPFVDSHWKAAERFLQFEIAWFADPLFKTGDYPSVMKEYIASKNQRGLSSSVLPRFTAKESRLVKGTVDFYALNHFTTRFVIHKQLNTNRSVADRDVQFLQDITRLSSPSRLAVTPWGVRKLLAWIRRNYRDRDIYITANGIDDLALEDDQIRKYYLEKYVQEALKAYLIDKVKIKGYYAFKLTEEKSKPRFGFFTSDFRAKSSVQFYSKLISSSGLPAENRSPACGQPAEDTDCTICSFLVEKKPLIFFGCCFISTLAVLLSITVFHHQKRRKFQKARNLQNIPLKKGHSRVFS
differentiated 3T3-L1 adipocytes, sequence (P16092 22-822): as the sequence (P16092 22-822) above
differentiated 3T3-L1 adipocytes, sequence (Q99N32 whole entry): as the sequence (Q99N32 whole entry) above

B1: FGF21ΔH: FGF21 with H1 absent, L146 (SEQ ID NO:2), produced from E. coli (protein, listed as Homo sapiens)
chain: PIPDSSPLLQFGGQVRQRYLYTDDAQQTEAHLEIREDGTVGGAADQSPESLLQLKALKPGVIQILGVKTSRFLCQRPDGALYGSLHFDPEACSFRELLLEDGYNVYQSEAHGLPLHLPGNKSPHRDPAPRGPARFLPLPGLPPALPEPPGILAPQPPDVGSSDPLSMVGPSQGRSPSYAS
For the molecule B1, the “activity in Glut1 Taqman assay (in words)” value in series [1] (3T3-L1 adipocytes) was “dose-dependent Glut1 induction”. Further, the EC50 (as a rule, the concentration needed to bring the measured effect to its halfway point) in series [1] (3T3-L1 adipocytes, serum-free DMEM 0.2% BSA, 6 hrs, Taqman quantitative real-time PCR, read-out: Glut1 RNA expression EC50) amounted to 3.39 nM; in series [1] (unconjugated FGF21 mutant protein, n in parentheses, read-out: Glut1 Taqman unconjugated Protein EC50), 2.3 nM; in series [2] it was 12 nM. Moreover, the “% SC BioAv” value in [3] was 96%. The “IV T1/2” value in series [3] was 24 min. In addition, in series [3], the “SC T1/2” value came out at 30 min. Besides, the “mean glucose AUC % during OGTT” value with ob/ob mice (ob/ob mice, single dose, dose not given) amounted to 63%. For the same molecule, the “Mean Glucose AUC (% of vehicle control) during OGTT” value is 103 % of vehicle control in the series with ob/ob mice (ob/ob mice, single SC dose 0.6 mg/kg) and 74 % of vehicle control in the series with ob/ob mice (ob/ob mice, single SC dose 1 mg/kg). The “Mean Glucose AUC (% of vehicle control)” value in the series with ob/ob mice (ob/ob mice, OGTT on day 6, 1 mg/kg QD) was 61** % of vehicle control. The “Glucose AUC during OGTT (% of vehicle control)” value is reported as 67*** % of vehicle control with ob/ob mice (ob/ob mice, day 6, 1 mg/kg QD) and 75*** % of vehicle control in series [6]. For the same molecule, the “GTT* (% AUC of Ctrl)” value in the series with ob/ob mice (protein, 1 mg/kg Qd) is given as 67 % AUC of Ctrl. Further, the “Cumulative body weight change, mean body weight” value in series [4] (FIG. 5A, single SC dose 0.6 mg/kg) is 3.2 g; in series [4] (FIG. 5A, single SC dose 1 mg/kg), 2.5 g; in series [4] (FIG. 6A, single dose, dose not given), 1.9 g. In addition, the results for the “mean liver weight” value in [4] (single SC dose 0.6 mg/kg) and in series [4] (single SC dose 1 mg/kg) were 2.4 g and 2.2 g, respectively. Besides, the “Mean fold change of mRNA expression, FoxA2 (SEM)” value in [5] is 1.23 (0.08) fold. Also, in [5], the “Mean fold change of mRNA expression, MOGAT2 (SEM)” value is reported as 0.37 (0.05)** fold. Also, the “Mean fold change of mRNA expression, SCD1 (SEM)” value in series [5] was 0.95 (0.06) fold. Besides, the “Mean values of serum lipids NEFA (mM) (SEM)” value in [7] is given as 0.40 (0.04) mM. Moreover, the “Mean values of serum lipids TG (mg/dL) (SEM)” value in series [7] is on record as 92 (9.6)** mg/dL.

B2: FGF21ΔH-D79C: FGF21 cysteine mutant, SEQ ID NO:12 (protein, listed as Homo sapiens)
chain: B1 chain with D78C
Regarding B2, the EC50 in series [1] (differentiated 3T3-L1 adipocytes, 6 hrs, protein or antibody conjugate as labelled, read-out: Glut1 Taqman assay EC50) stood at 2.1 nM. For the same molecule, the “mean glucose AUC % during OGTT” value with ob/ob mice (ob/ob mice, single dose 10 mg/ml (so in the source)) was 54%. In addition, the “Cumulative body weight change, mean body weight” value in [4] (FIG. 6A, single dose 2 mg/kg) is 2.1 g. In [8] (freeze (−80 C) and thaw (4° C.) 9 times, RP-HPLC, SEC and Ellman assay), the “stability upon freeze/thaw cycles” value was “Neither sample showed any difference between cycle 1 and cycles 9”. The “stability (oxidation, dimerization)” value in [8] (neutral pH 7.4, 4° C., seven-day incubation) is listed as “stable”. In addition, the portion oxidized entry in series [8] (pH 6.0, 4° C., three-day incubation) is “more than half”.

B3: FGF21: Fibroblast growth factor (FGF) 21, wild type (protein, listed as Homo sapiens)
chain: B1 chain
Regarding B3, in series [1] (Glut1 Taqman, 3T3-L1 adipocytes, 6 hrs, read-out: FGF21 (Glut1) EC50), the EC50 amounted to 2.1 nM. Moreover, the “Mean Body Weight Change (g) (SEM)” value in the series with DIO mice (Day 7) is recorded as “+1.4 g”. In addition, the “Mean Glucose AUC (% of vehicle control)” value in the series on DIO mice (OGTT Day 7) is on record as 99 % of vehicle control.
